Source: patent publication US20250179187A1, “ANTI PD-L2 ANTIBODY” (REJUVERON SENESCENCE THERAPEUTICS AG, priority 2022, published 2025)

How the values were obtained:
[1] = target: T1, recombinant hPD-1 binding to CHOK-1 cell expressing hPD-L2 (Homo sapiens, UniProt Q9BQ51); experiment: Blocking of recombinant hPD-1 binding to cellular hPD-L2 by flow cytometry; type: cell-based; conditions: compared to a panel of commercially available anti-PD-L2 antibodies
T1 construct: GFP; host or cells: CHO-K1
T1 sequence (Q9BQ51 20-273): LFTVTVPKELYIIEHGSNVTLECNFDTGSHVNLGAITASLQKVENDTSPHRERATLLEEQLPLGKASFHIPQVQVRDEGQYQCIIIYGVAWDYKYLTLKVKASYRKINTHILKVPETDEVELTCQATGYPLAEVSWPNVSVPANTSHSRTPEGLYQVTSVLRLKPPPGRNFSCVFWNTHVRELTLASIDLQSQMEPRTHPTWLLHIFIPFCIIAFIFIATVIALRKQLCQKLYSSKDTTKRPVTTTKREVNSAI
Protocol: CHO-K1 cells over-expressing either hPDL2-GFP were detached, washed in phosphate buffered saline (PBS) and adjusted to a cell concentration of around 1 million cells in CB. Around 80,000 cells were then distributed into a round-bottom 96 well plate and the plate was centrifuged for 3 minutes at 400 g at 4° C. and supernatant discarded. A constant concentration of ligand recombinant hPD-1 ligand (Sino Biological 10377-H08H/lot LC13JA2207) of 15 micrograms/mL was incubated with respective concentration of antibody, added to the cells and incubated for 30 min at 6-8° C. Cells were washed 3 times in PBS and then incubated with a rabbit polyclonal anti-His (Abcam Ab1187/lot GR3369369-1) in CB and subsequently washed three times in PBS. Cells were then incubated with a labeled anti-rabbit secondary (AlexaFluor 647 Goat anti-Rabbit IgG (H+L) (Invitrogen A21244/lot 1910774) for 15 minutes at 4° C., washed two times in PBS, resuspended in CB and analyzed in the Sony ID7000 Spectral Cell analyzer (Sony).

[2] = target: T2, cellular hPD-L2 expressed on CHOK-1 cells (Homo sapiens, UniProt Q9BQ51); experiment: Binding of antibodies to cellular hPD-L2 on CHO-K1 cells by flow cytometry; conditions: compared to a panel of commercially available anti-PD-L2 antibodies
T2 construct: GFP; expressed in transfected cells; host or cells: CHO-K1
T2 sequence (Q9BQ51 20-273): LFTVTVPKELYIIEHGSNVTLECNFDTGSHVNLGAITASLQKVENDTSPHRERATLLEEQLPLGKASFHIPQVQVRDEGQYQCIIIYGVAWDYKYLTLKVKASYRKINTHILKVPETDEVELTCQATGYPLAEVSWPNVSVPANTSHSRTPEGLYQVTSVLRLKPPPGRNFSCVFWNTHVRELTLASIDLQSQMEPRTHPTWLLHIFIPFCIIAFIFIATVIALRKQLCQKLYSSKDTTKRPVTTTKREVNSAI
Protocol: CHO-K1 cells over-expressing either hPDL2-GFP or mPD-L2 GFP were detached, washed in phosphate buffered saline (PBS) and adjusted to a cell concentration of around 1 million cells in cytometry buffer (CB, PBS containing 1% […]). Around 80,000 cells were then distributed into a round-bottom 96 well plate and the plate was centrifuged for 3 minutes at 400 g at 4° C. and supernatant discarded. Appropriate antibody concentrations in 50 microliter volumes were added to the wells and incubated for 30 minutes at 6-8° C. The plate was washed 3 times with PBS and relevant secondary antibodies (either AlexaFluor 647 Goat anti-Mouse IgG (H+L) (Invitrogen A21235/lot 1915807) or AlexaFluor 647 Goat anti-Rat IgG (H+L) (Invitrogen A21247/lot 1921562) were added for 30 minutes at 4° C. Cells were again washed with PBS two times, resuspended in CB and analyzed in either the Sony ID7000 Spectral Cell analyzer (Sony) or the GALLIOS Flow Cytometer (Beckman-Coulter) was used. EC50 was calculated using the Sigmoidal 4PL equation of the GraphPad Prism-9 software.

- blocking activity against recombinant hPD-1 binding to CHOK-1 cell expressing hPD-L2 [1]: superior blocking activity
- binding activity against cellular hPD-L2 [2]: superior binding activity
B1: VH0/VK0-mIgG1: parental murine anti-PD-L2 antibody on mIgG1 backbone; SEQ ID NO: 21/SEQ ID NO: 22 (antibody, V domains shown)
VH: QVQLQQSGAELVRPGTSVKVSCKASGYAFSNYFIEWVKQRPGQGLEWIGLNIPGSGGSNYAEKFKGKATLTADKSSSTAYMQLSSLTSEDSAVYFCARRRLPPDWYFDVWGTGTTVTVSS
VL: DVVMTQTPLSLPVSLGDQASISCRSSQSLVHSDGNTYLHWYLQKPGQSPKLLIYKVSNRFSGVPDRFSGSGSGTDFTLKISRVEAEDLGVYFCSQSTHVPWTFGGGTKLEIK
